Assay: yeast display, Sf9 membrane polyspecificity reagent, FACS + sequencing; frameworks hold sequencing errors
Procedure, shortened: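 Polyreactivity labels are assigned by the sorting gate from which each nanobody was recovered. The gates were low and high (top ~1%), set on anti-HA fluorescence for expression and streptavidin fluorescence for reagent binding. Before sorting, galactose-induced (36–48 hours) yeast display cells were stained for 1 hour at 4 °C with 10% biotinylated, detergent-solubilized Sf9 membrane reagent.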

| Sequence | polyreactivity (PSR sort gate) |
| --- | --- |
| QVQLVESGGGLVQAGGSLRLSSAASGSTFYYYAMGWYRQAPGKERELVATISRSTARTFYADSVKGRFTISRDNEKNTVYLQMNSLKPEDTAVYYCAATSYVSVYPSYYRFGTYGYWGQGTQVTVSS | high polyreactivity |
| QVQLVESGGGLVQAGGILRLSCAASGRTFKYYAMGWYRQAPGKERELVATITWSGTSTNFADSVKGRFTISRDNAKNTVYLQMNSLKPEDTAVYYCAARSKRRNYDYWGQGTQVTVSS | high polyreactivity |
| QVQLVESGGGLVQAGGSLRLSCAASGSTFVYSAMGWYRQAPGKERELVAAIRNGDGTNYADSVKGRFTISRDNAMNTVYLQMNSLKPEDTAVYYCAAPQGEYFYVYEFDYWGQGTQVTVSS | low polyreactivity |
| QVQLVESGGGLVQAGGSLRLSCAASGITFNAYAMGLYRQAPGKERELVAAISRSGGSTYYADSVKGRFTISRDNANNTVYLQMNSLKPEDTAVYYCAVDYRTRGDYWGQGTQVTVSS | high polyreactivity |
| QVQLVESGGGLVQAGGSLRLSCAASGFTVGLYAMGWYRQAPGKERELVAAISGGGSTNYADSVKGRFTISRDNAKNTVYLQMNSLKPEDTAVYYCNKAYHNVYYNWYLRYYSYDYWGQGTQVTGSS | low polyreactivity |
| QVQLVESGGGLVQAGGSLRLRCASSGYIFTYYAMGWYRQAPGKERELVAAISWSGGRTYYADSVKGRFTISRDNAKITVYLQMNSLKPEDTAVYYCNAVDKRYPDMDYWGQGTQVTVSS | high polyreactivity |
| QVQLVESGGGLVQAGGSLRLSCAASGSTFFVNAMGWYRQPPGKERELVAAISTSGGRTYYADSVKGRFTISRDNAKNTVYLQMNSLKPEDTAVYYCAAYLRSPKGYYYWGQGTQVTVSS | high polyreactivity |
| QVQLVESGGGLVQAGGSLRLSCAASGSIFTVYAIGWYRQAPGKEREFVADIDSGGTYYADSVKGRFTISRDNAKNTVYLQMNSLKPEDSAVYYCAALAALDYGQLYLADDDYWGQGTQVTVSS | low polyreactivity |
| HVQLVESGGGLVQAGGSHRLICASSGFTIYYAIAWYRQAPGKESELVASISANGGSTYYADSVKGRFTISRDNAKNTVYLQMNSLKPEDTAVYYCAARGLSGQRRYYWGQGTQVTVSS | high polyreactivity |
| QVQLVESGGGLVQAGGSLRLSCAASGRTFYYNAMGWYRQAPGKERELVAAISSGDTTKYADSVKGRFTISRDNAKNTVYLQMNSLKPEDTAVYYCAAVYQSYTYYLPKYWSFYQNDYWGLGTQVTVSS | low polyreactivity |
| QVQLVESGGGLVQAGGSLRLSCAASGRIFSVYTMGWYRQAPGKERELVATISSGGRTNYADSVKGRFTISRDNAKNTVYLQMNSLKPEDTAVYYCAAVPYGFVGYDDYWGQGTQVTVSS | low polyreactivity |
| QVQLVESGGGLVQAGGSLRLSCAASGSTFGWNAMGWYRQAPGKERELVAAISSSGGITYYAYSVKGRFTISRDKAKNTVSLQMNSLKPEDTAVYYCAAERDDDWGNYWGQGTQVTGSS | low polyreactivity |
| QVQLVESGGGLVQSGGSLRLTCAASGIIFPRYAMGWYRQAPGKERELVAAITRRGGRTYYADSVKGRFTISRDNAKNTVYLQMNSLKPEDTAVYYCNADFISTRPPKATDEDYWGQGTQVTVSS | high polyreactivity |
| QVQLVESGGGLVQAGGSLRLSCAASGSTFYRYAMGWYRQAPGKERELVAAISTRSGSTYYADSVKGRFTISRDNAKNTVYLQMNSLKPEDTAVYYCAADGHKKTARKYYYWGQGTQVTVSS | low polyreactivity |
| QVQLVESGGGLVQAGGSLRLSCAASGRTFIPYAMGWYRQAPGKERELVATISRSGGSTYYADSVKGRFTISRDNAKNTVYLQMNSLKPEDSAVYYCAAQWVRKSGREGYWGQGTQVTVSS | high polyreactivity |
| QVQLLESGGGLVQAGGSLRLSCAASGSIFYWNAMGWYIQARGKERELLAAINYSGDSTYDADSVKGAFTISRDNAKNTVYLQMNSLKPEDTAVYYCNFDYWGQGTQVTVSS | low polyreactivity |
| QVQLVESGGGLVQAGGSLRLICAASGFTIYRYAMGWYRQAPGKERELVATIRRGGSTKYADSVKGRFTISRDNAKNTVYLQMNSLKPEDTAVYYCNARYYAAPDKYYYWGQGTQVTVSS | low polyreactivity |
| QVQLVESGGGLVQAGGSLRLICAASGFIFGGYAMGWYRQAHGKERELVAAISSSGGSTYYADSVKGRFTISRDNAKNTVYLQMNSLKPEDTAVYYCAADRYYYRGRYYGYTREFDYWGQGTQVTVSS | high polyreactivity |
| QVQLVESGGGLVQAGGSLRLSCAASGITFSPYTRGWYRQATGKERELVAAINDGAITYYADSVKGRFTISRDNAKNTVYLQMNSQKPEDTAVYYCAAAAWGTDPFSTDYASYDYWGQVTQVTVSS | low polyreactivity |
| QVQLVESGGGLVQAGGSLRLSCAASGRTFRYNTMGWYRQAPGKERELVARINWSGGSTYYADSVKGRFTISRDNAKNTVYLQMNSLKPEDTAVYYCAAVPILVYRWFQSYTGDYDYWGQGTQVTVSS | low polyreactivity |
| QVQLVESGGGLVQAGGSLRLSCAASGNTFPPNAMGWSRQAPGKERELVAAISWSGDSTYYADSVKGRFTISRDNAKNTVYLQMNSLKPEDTAVYYCAAAIFGEYEYWGQGTQVTVSS | low polyreactivity |
| QVQLVESGGGLVQAGGSLRLSCAASGRTFGLYAMGWYRQAPGKERELVAAISRSGGRTYYADSVKGRFTISRDNAKNTVYLQMNSLKPEDTAVYYCSTYYDRASYRYDYWGQGTQETVSS | high polyreactivity |

| Sequence | polyreactivity (PSR sort gate) |
| --- | --- |
| QVQLVESGGGLVQAGGSLRLSCAPSGRIFFYYVMGWYRQAPGKERELVAAITRSGGSTYYADSVKGRFTISRDNAKNTVYLQMNSLKPEDTAVYYCAVGDGFEFDWGQGTQVTVSS | low polyreactivity |
| QVQLVESGGGLVQAGGSLRLSCAASGSIFRFNAMGWYRQAPGKERELVAAITSRTYYADSVKGRFTISRDNAKNTVYLQMNSLKPEDTAVYYCAARVQSKYGYWGQGTQVTVSS | high polyreactivity |
| QDQLEESGGGLVQAGGSLRLSSAASGGTLYLYDMGWYRQAPGKERELVAAISYNGGSTYADSVKGRFTISRDNAKNTFYLQMNSLNPEDSAVYYCAADRPPRGLGGYWGQGTLVTVSS | low polyreactivity |
| QVQLVESGGGLVQAGGSLRLSCAASGSIFGYYAMGWYRQAPGKERELVAAISSGGSTKYADSVKGRFTISRDNAKNTVYLQMNSLKPEDTAVYYFNAAYSQIRFNYRGQGTQVTVSS | high polyreactivity |
| QVQLVESGRGLVQAGGSLRLSCAASGYTFSHYAMGWYRQAPGKEMELVAGNTWSGGSTYYADSVKGRFTISRDNAKNTVYLQMNSLKPEDTSVYYCAAKYYWYYSYSGIPLFDYWGQGTQVTVSS | low polyreactivity |
| QVQLVESGGGLVQAGGSLRLSCAASGFTFYNYAMGWYRQAPGKERELVAAITSRGGSTYYADSVKGRFTISRDYAKNTVYLQMNSLKPEDTAVYYCNAVAKLYYWRYDYWGQGTQVTVSS | low polyreactivity |
| QVQLGESGGGLVQAGGSLRLSCAASGFTSVRYAKGWYRQAPGKERELVAAITWNGGSTYYADSVKGRFTISRDNAKKSVYLQMNSLKPEDTAVYYCAKDTPYRYSVAYDYWGQGTQVTVSS | high polyreactivity |
| QVQLVESGGGLVQAGGSLRLSCAASGRTFKHYAMGWYRQAPGKERELVAAITSGGSTYYADSVKGRFTISRDNAKNTVYLLMNSLIPEDTAVYYCNKESYFDTYRRYDSWGHGTQVTVSS | low polyreactivity |
| QVQLVESGGGLVQAGGSLRLSCAASGFIFDIYAMGWYRQAPGKERELVASINWSGGDSTSYADSVKGRFTISRDNAKNTVYLQMNSLKPEDTAVYYCNAEYWSYAGGYPDEYDYWGQGTQVTVSS | low polyreactivity |
| QVQLVESGGGLVQAGGSLRLSCAATGSTFIDNARGWYRQAPGKERELVAAINSSGGNTYYADSVKGRFTISRDNAKNTVYLQMNSLKPEDTAVYYCNAEFSVLYFYDYEYWGQGTQVTVSS | low polyreactivity |
| QVQLVESGGGLVQAGGSLRLSCAASAITFYDYPMGWYRQAPGKERELVAAITWNGGDTYYADSVKGRFTISRDNAKNTDYLQMNSLKPEDTAVYYCNATRHYFGGFHYEYYYWGQGTQVTVSS | low polyreactivity |
| QVQLVESGGGLVQAGGSLRLSCAASGSTFAKNTMGWYRQAPGKERELVAAISTSGGSTYYADSVKVRFTISRDNAKNTVYLQMNSLKPEDTAVYYCAARAFQYYRAMDYWGQGTQVTVSS | low polyreactivity |
| QVQLVESGGGLVQAGGSLRLSCAASGFTFARYAMGWYIQAPGKERELVASISGSGESTYYADSVKGRFTISRDNAKNTVYLQMNSLKPEDTAVYYCAAEGSFLFFSWYWPEYDYWGQGTQVTVSS | high polyreactivity |
| QVQLVETGGGLVHAGGSLRLSCAASGRTFEPNAMGWYRQAPGKERELVATISYSGGRTNYADSVKGRFTISRDNAKNTVYLQMKILKPEDTAVYYCATRTYYRRVCIRDFWGQGTLVTVSS | high polyreactivity |
| QVQLVESGGGLVQAGGSLRLSCAASGSIFSYNAMGWYRKAPGKERELVAAIRASGGDTYYADSVKGRFTISRDNAKNTVYLQMNSLKPEDTAVYYCAARTYAHHYASHGYWGQGTQVTVSS | low polyreactivity |
| QVQLVESGGGLVQAGGSLRLSCAASGFIFASYTMGRTRQAPGKERELVAAISRAGSTYYADSVKGRFTISRDNAKNTVYLQMNSLKPEDTAVYYCNAVSWRTSRYDYWGQGTQVTVSS | high polyreactivity |
| QVQLVESGGGLVQAGGILRLSCAASGSIFDVYAMGWYRQAPGKERELVAAINRGGSTNYADSVKGRFTISRDNAKNTVYLQMNCLKPEDTAVYYCAADIVWYVYNGYYWIFDYWGQGTQVTVSS | high polyreactivity |
| QVQLVESGGGLVQAGCSLRLSCAASGRIFDFYAMGWYRHAPGKERELVAAISWDGSDTYYADSVKGRFTISRDNAKNTVYLQMNSLKPEDTAVYYCAADYYSPSGHEYNYWGQGTQVTVSS | high polyreactivity |
| QVQLVESGGGLVQAGGSLRLSCAASGGIIGWYAMGWYRQAPGKERELVAAINWSGADTYYADSVKGRFTISRDNAKNTVYLQMNSLKPEDTAVYYCAADGHKYRMDYWGQGTQVTVSS | low polyreactivity |
| QVQLVESGGGLVQAGGSLRLSCAASGSIITGYAMGWYRQAPGKERELVAAITGNAGSTYYADSVKGRFTISRDNAKNTVYLQMNSLKPEDTAVYYCNARSWYVRGDYWGQGTQVTVSS | low polyreactivity |
| QVQLVESGGGLVQAGGSLRLSCAASGRIFLVYAMGWYRQAPGKERELVAAISWRGGRTYYADSVKGRFTISRDNAKNTVYLQMNILKPEDTAVYYCAAASKYSQFEYDYWGHGTQVTVSS | high polyreactivity |

From the nanobody polyreactivity screen of Harvey et al. (2022)
